Experiments:
[1] = target: T1, recombinant purified FRα (ECL assay calibrator) (human, UniProt P15328 25-234); assay: ECL sandwich, FRα calibrator; capture 6A2.G7; binder = detection Ab
T1 construct: Calibrator of the ECL sandwich assays; also called FRα calibrator; FRα standard

[2] = target: T1, recombinant purified FRα (ECL assay …); assay: ECL sandwich, FRα calibrator; capture 19D2.G9; binder = detection Ab
[3] = target: T1, recombinant purified FRα (ECL assay …); assay: ECL sandwich, FRα calibrator; capture 24H8.D3; binder = detection Ab
[4] = target: T1, recombinant purified FRα (ECL assay …); assay: ECL sandwich, FRα calibrator; capture 24H8.F3; binder = detection Ab
[5] = target: T1, recombinant purified FRα (ECL assay …); assay: ECL sandwich, FRα calibrator; capture 26A9.C4; binder = detection Ab
[6] = target: T1, recombinant purified FRα (ECL assay …); assay: ECL sandwich, FRα calibrator; capture 2F11.F8; binder = detection Ab
[7] = target: T1, recombinant purified FRα (ECL assay …); assay: ECL sandwich, FRα calibrator; capture 5C12.H8; binder = detection Ab
[8] = target: T1, recombinant purified FRα (ECL assay …); assay: ECL sandwich, FRα calibrator; capture 19D4.B7; binder = detection Ab
[9] = target: T1, recombinant purified FRα (ECL assay …); assay: ECL sandwich, FRα calibrator; capture 28H12.G9; binder = detection Ab
[10] = target: T1, recombinant purified FRα (ECL assay …); assay: ECL sandwich, FRα calibrator; capture 1C6.E12.G8; binder = detection Ab
[11] = target: T1, recombinant purified FRα (ECL assay …); assay: ECL sandwich, FRα calibrator; capture 1D2.G8.G10; binder = detection Ab
[12] = target: T1, recombinant purified FRα (ECL assay …); assay: ECL sandwich, FRα calibrator; capture 1A8.G11.E7; binder = detection Ab
[13] = target: T1, recombinant purified FRα (ECL assay …); assay: ECL sandwich, FRα calibrator; capture 30G6.G6.G4.E9; binder = detection Ab
[14] = target: T1, recombinant purified FRα (ECL assay …); assay: ECL sandwich on FRα, signal to background; capture 6A2.G7; binder = detection Ab
[15] = target: T1, recombinant purified FRα (ECL assay …); assay: ECL sandwich on FRα, signal to background; capture 19D2.G9; binder = detection Ab
[16] = target: T1, recombinant purified FRα (ECL assay …); assay: ECL sandwich on FRα, signal to background; capture 24H8.D3; binder = detection Ab
[17] = target: T1, recombinant purified FRα (ECL assay …); assay: ECL sandwich on FRα, signal to background; capture 24H8.F3; binder = detection Ab
[18] = target: T1, recombinant purified FRα (ECL assay …); assay: ECL sandwich on FRα, signal to background; capture 26A9.C4; binder = detection Ab
[19] = target: T1, recombinant purified FRα (ECL assay …); assay: ECL sandwich on FRα, signal to background; capture 2F11.F8; binder = detection Ab
[20] = target: T1, recombinant purified FRα (ECL assay …); assay: ECL sandwich on FRα, signal to background; capture 5C12.H8; binder = detection Ab
[21] = target: T1, recombinant purified FRα (ECL assay …); assay: ECL sandwich on FRα, signal to background; capture 19D4.B7; binder = detection Ab
[22] = target: T1, recombinant purified FRα (ECL assay …); assay: ECL sandwich on FRα, signal to background; capture 28H12.G9; binder = detection Ab
[23] = target: T1, recombinant purified FRα (ECL assay …); assay: ECL sandwich on FRα, signal to background; capture 1C6.E12.G8; binder = detection Ab
[24] = target: T1, recombinant purified FRα (ECL assay …); assay: ECL sandwich on FRα, signal to background; capture 1D2.G8.G10; binder = detection Ab
[25] = target: T1, recombinant purified FRα (ECL assay …); assay: ECL sandwich on FRα, signal to background; capture 1A8.G11.E7; binder = detection Ab
[26] = target: T1, recombinant purified FRα (ECL assay …); assay: ECL sandwich on FRα, signal to background; capture 30G6.G6.G4.E9; binder = detection Ab
[27] = target: T2, human folate receptor beta (FRβ), recombinant, C-terminal 6xHis (human, UniProt P14207 17-230, limits assumed); assay: direct ELISA, plates coated with 1 µg/mL FR isoform, dilution series of culture supernatant
T2 construct: Transiently expressed in 293F cells and purified; coated on ELISA plates

[28] = target: T3, human folate receptor gamma (FRγ), recombinant, C-terminal 6xHis (human, UniProt P41439 23-245, limits assumed); assay: as above
T3 construct: Transiently expressed in 293F cells and purified; coated on ELISA plates
T3 sequence (P41439 other isoform, or with tags, fused parts or gaps limits assumed): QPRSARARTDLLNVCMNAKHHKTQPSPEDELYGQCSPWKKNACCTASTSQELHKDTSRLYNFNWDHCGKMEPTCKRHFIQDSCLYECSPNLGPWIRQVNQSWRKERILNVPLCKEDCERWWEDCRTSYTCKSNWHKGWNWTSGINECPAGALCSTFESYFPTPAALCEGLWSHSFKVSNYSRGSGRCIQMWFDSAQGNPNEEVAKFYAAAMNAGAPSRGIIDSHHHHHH

T1 sequence (P15328 25-234 limits assumed): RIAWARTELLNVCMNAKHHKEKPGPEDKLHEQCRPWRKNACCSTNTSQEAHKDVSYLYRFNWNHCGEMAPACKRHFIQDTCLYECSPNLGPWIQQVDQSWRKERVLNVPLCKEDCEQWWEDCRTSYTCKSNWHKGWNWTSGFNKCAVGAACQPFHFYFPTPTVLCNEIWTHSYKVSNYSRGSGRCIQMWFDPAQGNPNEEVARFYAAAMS
T2 sequence (P14207 other isoform, or with tags, fused parts or gaps limits assumed): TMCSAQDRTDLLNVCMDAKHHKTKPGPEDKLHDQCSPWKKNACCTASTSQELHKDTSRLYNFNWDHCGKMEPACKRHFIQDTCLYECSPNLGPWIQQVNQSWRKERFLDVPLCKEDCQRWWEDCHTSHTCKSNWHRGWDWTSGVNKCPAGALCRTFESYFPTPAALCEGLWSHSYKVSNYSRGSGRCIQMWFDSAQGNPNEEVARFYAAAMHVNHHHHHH

Binder	Specific signal at 500 pg/mL [1]	Specific signal at 500 pg/mL [2]	Specific signal at 500 pg/mL [3]	Specific signal at 500 pg/mL [4]	Specific signal at 500 pg/mL [5]	Specific signal at 500 pg/mL [6]	Specific signal at 500 pg/mL [7]	Specific signal at 500 pg/mL [8]	Specific signal at 500 pg/mL [9]	Specific signal at 500 pg/mL [10]	Specific signal at 500 pg/mL [11]	Specific signal at 500 pg/mL [12]	Specific signal at 500 pg/mL [13]	Average of S/B [14]	Average of S/B [15]	Average of S/B [16]	Average of S/B [17]	Average of S/B [18]	Average of S/B [19]	Average of S/B [20]	further results
Monoclonal antibody 19D4.B7 (antibody, mouse IgG2a, V domains shown, SULFO-TAG conjugated when used as detection antibody in the ECL assay; also called ATCC PTA-11884) VH: GARELVKPGASVKLSCTASGFNIKHPYMHWVKQRPDQGLEWIGRIDPANGNTKYDPKFQGKATITADTSSNTAYLQLSSLTSEDTAVYYCGREEVADYTMDYWGQGTSVTVSS VL: PASLAVSLGQRATISCRASESVDTYGNNFIHWYQQKPGQPPKLLIYLASNLESGVPARFSGSGSRTDFTLTIDPVEADDAATYYCQQNNGDPWTFGGGTKLEIKR	4960	65500	49100	19100	2630	1260	320	87	1220	2020	1970	58700	81	82	560	361	207	34	17	5	Average of S/B [21]: 1; Average of S/B [22]: 17; Average of S/B [23]: 28; Average of S/B [24]: 29; Average of S/B [25]: 405; Average of S/B [26]: 1
Monoclonal antibody 2F11.F8 (antibody, mouse IgG1, V domains shown, Murine IgG1 kappa from hybridoma; also called ATCC PTA-123098 (so in the source)) VH: ESGPGLVKPSQSLSLTCSVTGYSITSGYYWIWIRQFPGNKLEWMGYINYDGSNNYNPSLKNRISITRDTSKNQFFLKLNSVTTEDTATYYCARGNYYAMDYWGQGTSVTVSS VL: not shown	1180	71	59	54	69	179	53	26500	73	56	60	65	6790	23	1	1	1	1	1	1	binding result [27]: no binding; binding result [28]: no binding; Average of S/B [21]: 338; Average of S/B [22]: 1; Average of S/B [23]: 1; Average of S/B [24]: 1; Average of S/B [25]: 1; Average of S/B [26]: 81
Monoclonal antibody 30G6.G6.G4.E9 (antibody, mouse IgG1, V domains shown, Murine IgG1 kappa from hybridoma; also called ATCC PTA-123096) VH: GPGLVAPSQSLSITCTVSGFSLTSYGVHWVRQPPGKGLEWLGVIWAGGITNYNSALMSRLSISKDNSKSQVFLKMNSLQTDDTAMYYCARIYYDYDAWFAYWGQGTLVTVSA VL: not shown																					binding result [27]: no binding; binding result [28]: no binding
Monoclonal antibody 26A9.C4 (antibody, mouse IgG1, V domains shown, Murine IgG1 kappa from hybridoma; also called ATCC PTA-123092) VH: SGARELVKPGASVKLSCKTSGFTFSSSFISWLKQKPGQSLEWIAWIYGGNGGTSYNQNFTGKAQLTVDTSSSTAYMQFSSLTTEDSAVYYCASETYGNYWYFDVWGAGTTVTVSS VL: QSPASLSASVGDTVTITCRASGNIHNYLAWYQQKQGKSPQLLVYNAKTLADGVPSRFSGSGSGTQYSLKINSLQPEDFGNYYCQHFWSTPYTFGGGTKLEIK	361	79	59	56	79	61	68	16500	62	58	64	62	6710	6	1	1	1	1	1	1	binding result [27]: no binding; binding result [28]: no binding; Average of S/B [21]: 250; Average of S/B [22]: 1; Average of S/B [23]: 1; Average of S/B [24]: 1; Average of S/B [25]: 1; Average of S/B [26]: 114
Monoclonal antibody 24H8.D3 (antibody, mouse IgG1, V domains shown, Biotin-conjugated when used as capture antibody in the ECL assay; also called ATCC PTA-123090) VH: QVQLKESGPGLVAPSQSLSITCTVSGFSLTSYGVSWVRQPPGKGLEWLGVIWGDGSTNYHSTLISRLSISKDNSKSQVFLKLNSLQTDDTATYYCAKPHPAATGAMDYWGQGTSVTVSS VL: DIQMTQTTSSLSASLGDRVTISCRASQDISNHLNWYQQKPDGTIKLLIYYTSKLHSGVPSRFSGSGSGTDYSLTISNLEQEDIATYFCQQGNTLWTFGGGTKLEIK	1930	110	69	88	81	64	69	40500	97	59	52	71	20300	38	2	1	1	1	1	1	binding result [27]: no binding; binding result [28]: no binding; Average of S/B [21]: 332; Average of S/B [22]: 1; Average of S/B [23]: 1; Average of S/B [24]: 1; Average of S/B [25]: 1; Average of S/B [26]: 273
